Patent US20220177587A1, “METHODS AND USES OF VARIANT CD80 FUSION PROTEINS AND RELATED CONSTRUCTS” (Alpine Immune Sciences, Inc., priority 2018, published 2022)
Where a chain is given by its changes, count along the chain named. In names and notes the source's numbering stands.

B1: E35D/M47I/L85Q/D90G (protein, UniProt P33681 35-288, looked up, variant E35D M47I L85Q D90G)
T-lymphocyte activation …: VIHVTKEVKEVATLSCGHNVSVEELAQTRIYWQKDKKMVLTMMSGDINIWPEYKNRTIFDITNNLSIVILALRPSDEGTYECVVQKYEKGAFKREHLAEVTLSVKADFPTPSISDFEIPTSNIRRIICSTSGGFPEPHLSWLENGEELNAINTTVSQDPETELYAVSSKLDFNMTTNHSFMCLIKYGHLRVNQTFNWNTTKQEHFPDNLLPSWAITLISVNGIFVICCLTYCFAPRCRERRRNERLRRESVRPV
B2: E35D/T41S/M43V/M47I/L70M/A71G (protein, UniProt P33681 35-288, looked up, variant E35D T41S M43V M47I L70M A71G)
T-lymphocyte activation …: B1 T-lymphocyte activation … with T41S, M43V, L70M, A71G, Q85L, G90D
modifications: Fc fusion
B3: E35D/D46E/M47V/N63D/L85Q (protein, UniProt P33681 35-288, looked up, variant E35D D46E M47V N63D L85Q)
T-lymphocyte activation …: B1 T-lymphocyte activation … with D46E, I47V, N63D, G90D
B4: A71D/L72V/E95K: variant CD80 IgV-Fc, IgV SEQ ID NO:192 (protein)
chain: VIHVTKEVKEVATLSCGHNVSVEELAQTRIYWQKEKKMVLTMMSGDMNIWPEYKNRTIFDITNNLSIVILDVRPSDEGTYECVVLKYEKDAFKRKHLAEVTLSVKAD
B5: E35D/D46V/L85Q: variant CD80 IgV-Fc, IgV SEQ ID NO:203 (protein)
chain: B4 chain with E35D, D46V, D71A, V72L, L85Q, K95E
B6: E23G/A26S/E35D/T62N/A71D/L72V/L85M: variant CD80 IgV-Fc, IgV SEQ ID NO:216 (protein)
chain: B4 chain with E23G, A26S, E35D, T62N, L85M, K95E
B7: CD80 (A91G/I118V/T120S/T130A) ECD-Fc: variant full CD80 ECD fused to effector human IgG1 Fc (SEQ ID NO:1527) (protein)
chain: VIHVTKEVKEVATLSCGHNVSVEELAQTRIYWQKEKKMVLTMMSGDMNIWPEYKNRTIFDITNNLSIVILALRPSDEGTYECVVLKYEKDGFKREHLAEVTLSVKADFPTPSISDFEVPSSNIRRIICSASGGFPEPHLSWLENGEELNAINTTVSQDPETELYAVSSKLDFNMTTNHSFMCLIKYGHLRVNQTFNWNTTKQEHFPDN

Legend:
CD28 [1] = molecular target: T1, CD28 (Homo sapiens, UniProt P10747); experiment: Flow binding to Jurkat/IL2 reporter cells (CD28); set-up: host or cells: Jurkat cells expressing an IL-2-luciferase reporter; details: for CD28 Fold change to WT CD80: MFI ratio to WT CD80 ECD-Fc (R&D) at 33.3 nM
In short: (§1)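 Binding EC50 and PE mean fluorescence intensity derived by flow cytometry using PE-labelled anti-human Fc secondary. Target cells were CTLA4- or PD-L1-transfected CHO lines and CD28-expressing Jurkat/IL2 reporter cells, stained with fusion proteins on ice for 45 min following BSA blocking.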

CD28 [2] = molecular target: T1, CD28; experiment: Jurkat/IL2 + K562/OKT3/PD-L1 reporter assay; format: cell-based; set-up: host or cells: Jurkat cells expressing an IL-2-luciferase reporter; details: Table E8; K562/OKT3/PD-L1 aAPC; 50 nM
huCTLA4 = huCTLA4 (Homo sapiens, UniProt P16410); experiment: Flow binding to CHO cells stably expressing CTLA4; set-up: huCTLA4 and huPD-L1, full-length mammalian surface expression constructs were generated; expressed in transfected cells; host or cells: CHO cells, lentiviral transduction, sorted to >98% purity; details: for CTLA4 MFI at 33.3 nM: CHO cells stably expressing CTLA4; for CTLA4 Fold change to WT CD80: MFI ratio to WT CD80 ECD-Fc (R&D) at 33.3 nM
In short: as §1

huPD-L1 = huPD-L1 (Homo sapiens, UniProt Q9NZQ7); experiment: Flow binding to CHO cells stably expressing PD-L1; set-up: huCTLA4 and huPD-L1, full-length mammalian surface expression constructs were generated; expressed in transfected cells; host or cells: CHO cells, lentiviral transduction, sorted to >98% purity; details: for PD-L1 MFI at 33.3 nM: CHO cells stably expressing PD-L1; for PD-L1 Fold change to WT CD80: MFI ratio to WT CD80 ECD-Fc (R&D) at 33.3 nM; for Ratio of PDL1:CD28: binding to PD-L1 compared to binding to CD28
In short: as §1

CD28 [3] = molecular target: T1, CD28; experiment: Jurkat/IL2 reporter assay: blockade of CD28 costimulation (plate-bound anti-CD3/CD86-Fc); format: cell-based; set-up: host or cells: Jurkat cells expressing an IL-2-luciferase reporter; details: Table E5; protein diluted to 40 nM before mixing with cells; 5 hours
In short: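 Readout is Bio-Glo luminescence after a 5 h, 37 °C stimulation of IL-2-luciferase Jurkat reporter cells on wells precoated (overnight, 4 °C) with anti-CD3 antibody and CD86-Fc. Cells were first mixed with CD80-Fc test proteins for 15 min at room temperature.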

CD28 [4] = molecular target: T1, CD28; experiment: Jurkat/IL2 + CHO/OKT3 +/- PD-L1 reporter assay: PD-L1-dependent CD28 costimulation; format: cell-based; set-up: host or cells: Jurkat cells expressing an IL-2-luciferase reporter; details: for PD-L1-Dependent CD28 Costimulation, +PD-L1, 0.6 nM / PD-L1-Dependent CD28 Costimulation, +PD-L1, 50 nM: CHO/OKT3/PD-L1 aAPC; for PD-L1-Dependent CD28 Costimulation, +PD-L1, 0.6 nM / PD-L1-Dependent CD28 Costimulation, +PD-L1, 50 nM / PD-L1-Dependent CD28 Costimulation, No PD-L1, 50 nM / PD-L1-Dependent CD28 Costimulation, No PD-L1, […]: luciferase signal; for PD-L1-Dependent CD28 Costimulation, No PD-L1, 50 nM / PD-L1-Dependent CD28 Costimulation, No PD-L1, […]: CHO/OKT3 aAPC
In short: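 Readout is relative luminescence from lysed cocultures: test protein given 15 min at room temperature to Jurkat cells before adding CHO artificial APCs displaying OKT3 alone or OKT3 plus PD-L1, then 5 h at 37 °C, 5% CO2.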

CD28 [5] = molecular target: T1, CD28; experiment: CD28 costimulation via Fc receptor or PD-L1 dependent cross-linking (Jurkat/IL2 + K562/OKT3 +/- PD-L1); format: cell-based; set-up: host or cells: Jurkat cells expressing an IL-2-luciferase reporter; details: K562/0KT3 aAPC, luciferase signal
Procedure: In a further experiment, CD28 costimulation was assessed for variant CD80-IgV-Fc fusion proteins, where the Fc was an IgG1 Fc (e.g. SEQ ID NO:1517) capable of mediating effector activity via binding to Fc receptors (FcR). The experiment was carried out as described in part A above, except CD32-expressing K562 cells stably transduced with OKT3 (K562/OKT3) or OKT3 and PD-L1 (K562/OKT3/PD-L1) were used instead of the CHO/OKT3 and CHO/OKT3/PD-L1 cells, and the results are depicted in Table E9.

CD28 [6] = molecular target: T1, CD28; experiment: Jurkat/IL2 + K562/OKT3 (no PD-L1) reporter assay of CD80 ECD-Fc (effector); format: cell-based; set-up: host or cells: Jurkat cells expressing an IL-2-luciferase reporter; details: aAPC without PD-L1
Procedure: The bioactivity of the generated molecules also was assessed using a Jurkat report assay as described in Examples 9 to assess CD28 costimulation of the molecules.

[7] = Table E4, 33.3 nM variant CD80 IgV-Fc

Chain of huCTLA4 (P16410 36-223): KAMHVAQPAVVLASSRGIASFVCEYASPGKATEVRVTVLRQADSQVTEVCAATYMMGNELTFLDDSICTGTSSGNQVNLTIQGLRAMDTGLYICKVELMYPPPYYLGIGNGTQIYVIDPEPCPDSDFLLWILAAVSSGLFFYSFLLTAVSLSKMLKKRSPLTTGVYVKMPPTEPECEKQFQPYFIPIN
Chain of huPD-L1 (Q9NZQ7 19-290): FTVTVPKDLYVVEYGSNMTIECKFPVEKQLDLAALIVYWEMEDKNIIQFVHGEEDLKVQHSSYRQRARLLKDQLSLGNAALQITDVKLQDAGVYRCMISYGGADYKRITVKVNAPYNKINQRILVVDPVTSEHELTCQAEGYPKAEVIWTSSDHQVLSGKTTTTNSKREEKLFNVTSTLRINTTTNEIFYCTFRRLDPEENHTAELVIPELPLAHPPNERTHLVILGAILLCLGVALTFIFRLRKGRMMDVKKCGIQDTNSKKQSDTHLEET

| Molecule | CD28 MFI at 33.3 nM (CD28 [1]; Table E4, Jurkat cells (CD28)) | CD28 Fold change to WT CD80 (CD28 [1]; Table E4) | Fold Increase over WT CD80-IgV-Fe (CD28 [2]) | Relative Luciferase Units (RLU), CD80-Fe Cone 50 nM (CD28 [2]) | CTLA4 MFI at 33.3 nM (huCTLA4; [7]) | CTLA4 Fold change to WT CD80 (huCTLA4; Table E4) | PD-L1 MFI at 33.3 nM (huPD-L1; Table E4) | PD-L1 Fold change to WT CD80 (huPD-L1; Table E4) | Ratio of PDL1:CD28 (huPD-L1; Table E4) | Average Relative Luminescence Units (CD28 [3]) | PD-L1-Dependent CD28 Costimulation, +PD-L1, 0.6 nM (CD28 [4]) | PD-L1-Dependent CD28 Costimulation, +PD-L1, 50 nM (CD28 [4]) | PD-L1-Dependent CD28 Costimulation, No PD-L1, 50 nM (CD28 [4]) | PD-L1-Dependent CD28 Costimulation, No PD-L1, […] (CD28 [4]) | CD28 costimulation, FcR Dependent Cross-Linking (No PD-L1), 0.6 nM (CD28 [5]) | CD28 costimulation, FcR Dependent Cross-Linking (No PD-L1), 50 nM (CD28 [5]) | other results |
| --- | --- | --- | --- | --- | --- | --- | --- | --- | --- | --- | --- | --- | --- | --- | --- | --- | --- |
| B1 | 4095 | 0.23 | 7.0 | 1438 RLU | 247703 | 1.57 | 35710 | 3.01 | 9 |  |  |  |  |  |  |  |  |
| B2 | 2698 | 0.15 | 8.1 | 1672 RLU | 249456 | 1.59 | 12978 | 1.09 | 5 |  |  |  |  |  |  |  |  |
| B3 | 1331 | 0.07 | 6.7 | 1381 RLU | 274320 | 1.74 | 69780 | 5.88 | 52 |  |  |  |  |  |  |  |  |
| B4 |  |  |  |  |  |  |  |  |  | 2939 Relative Luminescence Units | 524 | 755 | 644 | 466 | 1821 | 7109 |  |
| B5 |  |  |  |  |  |  |  |  |  | 3230 Relative Luminescence Units | 611 | 2224 | 720 | 511 | 1880 | 7015 | CD28 MFI at 33.3 nM (CD28 [1]; Table E19, Jurkats (CD28)): 196; Relative Luciferase Units (RLU), CD80 Conc 5.0 nM (CD28 [4]; Table E21, Jurkat/IL2 + CHO/OKT3/PD-L1, CD80 Conc 5.0 nM): 410 RLU; CTLA4 MFI at 33.3 nM (huCTLA4; Table E19, 33.3 nM): 48005; PD-L1 MFI at 33.3 nM (huPD-L1; Table E19): 4039 |
| B6 |  |  |  |  |  |  |  |  |  | 2067 Relative Luminescence Units | 524 | 695 | 606 | 566 | 2022 | 7855 |  |
| B7 |  |  |  |  |  |  |  |  |  |  |  |  |  |  |  |  | Jurkat/CD28 MFI at 66.7 nM (CD28 [1]; 66.7 nM): 720; EC50 (CD28 [1]; flow binding, read-out: Jurkat/CD28 EC50): > 200 nM; Relative Luminescence at 98 pM (CD28 [6]; 98 pM): 1098 RLU; Relative Luminescence at 391 pM (CD28 [6]; 391 pM): 1119 RLU; Relative Luminescence at 1563 pM (CD28 [6]; 1563 pM): 1288 RLU; Relative Luminescence at 6250 pM (CD28 [6]; 6250 pM): 1761 RLU; Relative Luminescence at 25000 pM (CD28 [6]; 25000 pM): 2209 RLU; Relative Luminescence at 100000 pM (CD28 [6]; 100000 pM): 2750 RLU; CHO/CTLA4 MFI at 66.7 nM (huCTLA4; 66.7 nM): 24801; EC50 (huCTLA4; flow binding): 4.3 nM; CHO/PD-L1 MFI at 66.7 nM (huPD-L1; 66.7 nM): 107 |
